The values that follow come from publication PMC4666372 (Nucleic Acids Research, 2015).

The target in the experiment is T1, His-tagged TopA67 (N-terminal region of TopA, 67 kDa, residues 1-597) (E. coli, UniProt P06612 1-597).
T1 construct: DNA topoisomerase I (TopA) of E. coli, residues 1-597; source: E. coli BL21(DE3), 1 mM IPTG 3 h 37°C, purified (Ni-NTA agarose); not shown: His-tag, N-terminal, kept
T1 sequence (looked up): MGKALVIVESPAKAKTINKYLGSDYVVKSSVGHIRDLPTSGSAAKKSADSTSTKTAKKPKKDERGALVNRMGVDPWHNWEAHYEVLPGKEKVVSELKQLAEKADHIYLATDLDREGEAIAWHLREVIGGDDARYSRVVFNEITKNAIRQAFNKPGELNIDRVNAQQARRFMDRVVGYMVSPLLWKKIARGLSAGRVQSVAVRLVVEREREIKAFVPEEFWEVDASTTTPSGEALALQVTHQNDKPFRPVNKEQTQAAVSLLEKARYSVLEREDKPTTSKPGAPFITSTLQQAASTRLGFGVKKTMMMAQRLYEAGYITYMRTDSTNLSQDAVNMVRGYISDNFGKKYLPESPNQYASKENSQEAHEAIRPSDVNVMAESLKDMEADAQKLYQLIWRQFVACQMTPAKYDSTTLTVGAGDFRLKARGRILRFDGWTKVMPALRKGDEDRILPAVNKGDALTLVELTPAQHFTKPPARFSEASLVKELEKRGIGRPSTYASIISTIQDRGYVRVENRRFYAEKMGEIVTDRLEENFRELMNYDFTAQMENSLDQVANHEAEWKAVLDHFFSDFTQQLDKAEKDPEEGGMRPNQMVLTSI
The experiment is described as follows: co-IP; purified PrS-TopAI and TopA, TopA67 or TopA14 at a molar ratio of 1:5 in buffer A (20 mM Tris-HCl pH 8.0, 150 mM NaCl), in the absence of DNA; anti-protein S antiserum, protein G agarose, 4°C; western blot with anti-His antibody. The following applies: both partners purified.

B1: PrS-TopAI (N-terminal domain of Protein S fused to TopAI, His-tagged) (natural protein)
chain: not shown
notes: also called PrS-YjhX; YjhX
Consider B1, for which the binding result is “binds”.
